From CN107011436A
Values joined by “and” are separate entries in the source; they are usually repeats but may differ in a detail not shown here. Equal values may be shown once. Read-outs that look alike come from different tables or passages of the source.

Experiments:
纯化的H7N9病毒HA蛋白 (H7N9病毒) [1] = biological target: 纯化的H7N9病毒HA蛋白 (H7N9病毒)
[2] = biological target: H7N9病毒Nanjing-06病毒株的HA蛋白 (H7N9病毒); experiment: cell-based or functional assay
[3] = biological target: H7N9病毒Suzhou-03病毒株的HA蛋白 (H7N9病毒); experiment: cell-based or functional assay
[4] = biological target: H7N9病毒Wuxi-01病毒株的HA蛋白 (H7N9病毒); experiment: cell-based or functional assay
[5] = biological target: H7N9病毒Wuxi-02病毒株的HA蛋白 (H7N9病毒); experiment: cell-based or functional assay
纯化的H7N9病毒HA蛋白 (H7N9病毒) [6] = experiment: ELISA, HA-coated plate, expression supernatant diluted 1:20, anti-human Fc-HRP
纯化的H7N9病毒HA蛋白 (H7N9病毒) [7] = experiment: ELISA, HA-coated plate, expression supernatant diluted 1:40, anti-human Fc-HRP
纯化的H7N9病毒HA蛋白 (H7N9病毒) [8] = experiment: ELISA, HA-coated plate, expression supernatant diluted 1:80, anti-human Fc-HRP
纯化的H7N9病毒HA蛋白 (H7N9病毒) [9] = experiment: ELISA, HA-coated plate, expression supernatant diluted 1:160, anti-human Fc-HRP
纯化的H7N9病毒HA蛋白 (H7N9病毒) [10] = experiment: ELISA, HA-coated plate, expression supernatant diluted 1:320, anti-human Fc-HRP
纯化的H7N9病毒HA蛋白 (H7N9病毒) [11] = experiment: ELISA, HA-coated plate, expression supernatant diluted 1:640, anti-human Fc-HRP

B1: 抗H7N9病毒的单克隆抗体mAb6137 (antibody, V domains shown)
VH: EVQLVESGGGLVQPGRSLRLSCAASGFIFDDYAMHWVRQAPGKGLEWVSGISWNNNNRAYADSVKGRFTISRDSAKNSLYLQMNSLRAEDTALYYCAKDILSLNMVRGGDEYYGIDVWGQGTTVTVSS
VL: DIQLTQSPSSLSASVGDRVTITCQASQDINNYLNWYQQKPGKAPKLLIFDASNLETGVPSRFSGSGSGTDFTFTISSLQPEDIATYYCQQYGSLLTFGGGTKVDIKR
- OD450 (纯化的H7N9病毒HA蛋白 (H7N9病毒) [1]): 0.211 OD450 and 0.153 OD450
- 中和100×TCID50病毒需要的抗体质量 [2]: 20 ng
- 中和100×TCID50病毒需要的抗体质量 [3]: 40 ng
- 中和100×TCID50病毒需要的抗体质量 [4]: 40 ng
- 中和100×TCID50病毒需要的抗体质量 [5]: 80 ng
- OD450 (纯化的H7N9病毒HA蛋白 (H7N9病毒) [6]): 2.06 OD450
- OD450 (纯化的H7N9病毒HA蛋白 (H7N9病毒) [7]): 1.91 OD450
- OD450 (纯化的H7N9病毒HA蛋白 (H7N9病毒) [8]): 1.37 OD450
- OD450 (纯化的H7N9病毒HA蛋白 (H7N9病毒) [9]): 0.971 OD450
- OD450 (纯化的H7N9病毒HA蛋白 (H7N9病毒) [10]): 0.584 OD450
- OD450 (纯化的H7N9病毒HA蛋白 (H7N9病毒) [11]): 0.35 OD450
